{"source": "patent US20090286314A1", "about": "(Innovent, published 2009)", "proteins": {"B1": {"name": "double mutant of R-5 (Mut B) (other)", "chain": "MSLPATHDLHISGSINGHEFDLEGSGKGNAKEGYQELHLKSNKGDLSFSPWILVPNIGYGFYQYLPFPDGAMSPYQAAMHDGSGYVMHRSMQFEDGAMLHSDHRYIYKGNHIKGEFRLKGSGFPADGPVMTNSLTAADWCVDKLLYPNDNTIIGKFDWTYTTTSGKRYQSDVQTTVTFGKPIAADILKKQPMFVFRKVELKHTKTELNFKQWQKAFQDIA", "notes": "Expressed in E. coli and purified; Eluted as a dimer; also called dimeric mutant"}, "B2": {"name": "triple mutant of R-5 (Mut C) (other)", "chain": "MSLPATHDLHISGSINGHEFDLEGSGKGNAKEGYQELHLKSNKGDLSFSPWILVPNIGYGFYQYLPFPDGAMSPYQAAMHDGSGYVMHRSMQFEDGAMLHSDHRYIYKGNHIKGEFRLKGSGFPADGPVMTNSLTAADWCVDKLLYPNDNTIIGKFKWTYTTTSGKRYQSDVQTTVTFGKPIAADILKKQPMFVFRKVELKHTKTELNFKQWQKAFQDIA", "notes": "Expressed in E. coli and purified; Eluted as a monomer; also called R-5C; monomeric mutant"}}, "key": {"[1]": {"biological_target": "the molecule itself", "assay": "gel chromatography, HiPrep Sephacryl S-200, high protein concentrations (self-association)", "excerpt": "(§1) The wild-type fluorescent proteins have a tendency to self-aggregate and form tetramers. Among the limited number of new FPs that we so far have analyzed, no monomeric variant has been observed, but the tendency to self-aggregate appears to vary among individual variants. In order to generate a pure monomeric variant, which would be advantageous for certain applications, the protein R-5 (SEQ ID NO: 79) was subjected to limited mutagenesis after extensive 3-D modelling. Three amino acid residues were chosen as suitable candidates for mutagenesis, and three mutants with single, double and triple mutations were constructed and custom made by an external laboratory. After expression in E. coli and purification their aggregation state were analyzed by gel-chromatography on a HiPrep Sephacryl S-200 column. The conditions used (i.e. high protein concentrations) were chosen to promote aggregation, and EGFP, which is a weak forming dimer, did elute as a peak with an apparent molecular weight of ˜60 kDa, i.e. as a dimer."}, "[2]": {"biological_target": "the molecule itself", "assay": "gel chromatography, HiPrep Sephacryl S-200, high protein concentrations chosen to promote aggregation (self-association)", "excerpt": "as §1"}}}
{"protein": "B1", "values": [{"measurement": "binding result", "setting": "[1]", "value": "binds"}]}
{"protein": "B2", "values": [{"measurement": "binding result", "setting": "[2]", "value": "no binding"}]}
